Measurements published in patent US20150344570A1 (published 2015).

T1: FcγRIIa H (FcγRIIa, allotype with His at position 131), extracellular domain with C-terminal His tag (human, UniProt P12318 34-217)
T1 construct: extracellular domain; also called FcgRIIa H; 2aH; not shown: His tag at the C terminus
T1 sequence (looked up): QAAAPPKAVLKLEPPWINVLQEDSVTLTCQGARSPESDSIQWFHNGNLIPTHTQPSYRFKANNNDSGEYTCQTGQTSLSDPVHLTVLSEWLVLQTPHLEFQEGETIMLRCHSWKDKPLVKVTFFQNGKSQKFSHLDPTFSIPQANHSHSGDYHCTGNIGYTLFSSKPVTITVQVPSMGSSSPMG

T2: FcγRIIb, extracellular domain with C-terminal His tag (human, UniProt P31994 43-217)
T2 construct: extracellular domain; also called FcgRIIb; 2b; not shown: His tag at the C terminus
T2 sequence (looked up): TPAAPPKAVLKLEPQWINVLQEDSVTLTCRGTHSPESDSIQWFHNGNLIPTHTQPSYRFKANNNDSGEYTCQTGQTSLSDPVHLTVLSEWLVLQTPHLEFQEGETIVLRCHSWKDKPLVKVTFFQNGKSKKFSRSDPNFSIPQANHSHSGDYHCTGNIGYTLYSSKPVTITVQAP


What was measured:
[1] = target: T1, FcγRIIa H (FcγRIIa, allotype with His …); experiment: SPR (Biacore); He/Con_2aH divided by He/Con_2b (FcγRIIb)
[2] = target: T1, FcγRIIa H (FcγRIIa, allotype with His …); experiment: SPR (Biacore), relative binding vs GpH7-A5/GpH7-B3/GpL16-k0
[3] = target: T2, FcγRIIb, extracellular domain with …; experiment: as above

Binder	He_2aH/2b (IIaH/IIb) [1] [ratio]	He/Con_2aH [2]	He/Con_2b [3]
GpH7-A5/GpH7-B3 variant N325_01G/GpL16-k0 (antibody, human IgG1, kappa, Heterodimerized anti-glypican-3 IgG1; mutation in one H chain only; also called He Ab) heavy 1: not shown heavy 2: not shown light: DIVMTQSPLSLPVTPGEPASISCQASESLVHSNRNTYLHWYLQKPGQSPQLLIYKVSNRFSGVPDRFSGSGSGTDFTLKISRVEAEDVGVYYCSQNTHVPPTFGQGTKVEIERTVAAPSVFIFPPSDEQLKSGTASVVCLLNNFYPREAKVQWKVDNALQSGNSQESVTEQDSKDSTYSLSSTLTLSKADYEKHKVYACEVTHQGLSSPVTKSFNRGEC	0.56	56.8 % of HeCon Ab (=100)	101 % of HeCon Ab (=100)
GpH7-A5/GpH7-B3 variant K326_08L/GpL16-k0 (antibody, human IgG1, kappa, Heterodimerized anti-glypican-3 IgG1; mutation in one H chain only; also called He Ab) heavy 1: not shown heavy 2: not shown light: DIVMTQSPLSLPVTPGEPASISCQASESLVHSNRNTYLHWYLQKPGQSPQLLIYKVSNRFSGVPDRFSGSGSGTDFTLKISRVEAEDVGVYYCSQNTHVPPTFGQGTKVEIERTVAAPSVFIFPPSDEQLKSGTASVVCLLNNFYPREAKVQWKVDNALQSGNSQESVTEQDSKDSTYSLSSTLTLSKADYEKHKVYACEVTHQGLSSPVTKSFNRGEC	0.52	92.7 % of HeCon Ab (=100)	177 % of HeCon Ab (=100)
GpH7-A5/GpH7-B3 variant K326_10E/GpL16-k0 (antibody, human IgG1, kappa, Heterodimerized anti-glypican-3 IgG1; mutation in one H chain only; also called He Ab) heavy 1: not shown heavy 2: not shown light: DIVMTQSPLSLPVTPGEPASISCQASESLVHSNRNTYLHWYLQKPGQSPQLLIYKVSNRFSGVPDRFSGSGSGTDFTLKISRVEAEDVGVYYCSQNTHVPPTFGQGTKVEIERTVAAPSVFIFPPSDEQLKSGTASVVCLLNNFYPREAKVQWKVDNALQSGNSQESVTEQDSKDSTYSLSSTLTLSKADYEKHKVYACEVTHQGLSSPVTKSFNRGEC	0.51	102 % of HeCon Ab (=100)	200 % of HeCon Ab (=100)
GpH7-A5/GpH7-B3 variant K326_09D/GpL16-k0 (antibody, human IgG1, kappa, Heterodimerized anti-glypican-3 IgG1; mutation in one H chain only; also called He Ab) heavy 1: not shown heavy 2: not shown light: DIVMTQSPLSLPVTPGEPASISCQASESLVHSNRNTYLHWYLQKPGQSPQLLIYKVSNRFSGVPDRFSGSGSGTDFTLKISRVEAEDVGVYYCSQNTHVPPTFGQGTKVEIERTVAAPSVFIFPPSDEQLKSGTASVVCLLNNFYPREAKVQWKVDNALQSGNSQESVTEQDSKDSTYSLSSTLTLSKADYEKHKVYACEVTHQGLSSPVTKSFNRGEC	0.57	110 % of HeCon Ab (=100)	193 % of HeCon Ab (=100)
GpH7-A5/GpH7-B3 variant N325_04F/GpL16-k0 (antibody, human IgG1, kappa, Heterodimerized anti-glypican-3 IgG1; mutation in one H chain only; also called He Ab) heavy 1: not shown heavy 2: not shown light: DIVMTQSPLSLPVTPGEPASISCQASESLVHSNRNTYLHWYLQKPGQSPQLLIYKVSNRFSGVPDRFSGSGSGTDFTLKISRVEAEDVGVYYCSQNTHVPPTFGQGTKVEIERTVAAPSVFIFPPSDEQLKSGTASVVCLLNNFYPREAKVQWKVDNALQSGNSQESVTEQDSKDSTYSLSSTLTLSKADYEKHKVYACEVTHQGLSSPVTKSFNRGEC	0.23	33.4 % of HeCon Ab (=100)	143 % of HeCon Ab (=100)
GpH7-A5/GpH7-B3 variant K326_19Q/GpL16-k0 (antibody, human IgG1, kappa, Heterodimerized anti-glypican-3 IgG1; mutation in one H chain only; also called He Ab) heavy 1: not shown heavy 2: not shown light: DIVMTQSPLSLPVTPGEPASISCQASESLVHSNRNTYLHWYLQKPGQSPQLLIYKVSNRFSGVPDRFSGSGSGTDFTLKISRVEAEDVGVYYCSQNTHVPPTFGQGTKVEIERTVAAPSVFIFPPSDEQLKSGTASVVCLLNNFYPREAKVQWKVDNALQSGNSQESVTEQDSKDSTYSLSSTLTLSKADYEKHKVYACEVTHQGLSSPVTKSFNRGEC	0.73	101 % of HeCon Ab (=100)	139 % of HeCon Ab (=100)
GpH7-A5/GpH7-B3 variant K326_15Y/GpL16-k0 (antibody, human IgG1, kappa, Heterodimerized anti-glypican-3 IgG1; mutation in one H chain only; also called He Ab) heavy 1: not shown heavy 2: not shown light: DIVMTQSPLSLPVTPGEPASISCQASESLVHSNRNTYLHWYLQKPGQSPQLLIYKVSNRFSGVPDRFSGSGSGTDFTLKISRVEAEDVGVYYCSQNTHVPPTFGQGTKVEIERTVAAPSVFIFPPSDEQLKSGTASVVCLLNNFYPREAKVQWKVDNALQSGNSQESVTEQDSKDSTYSLSSTLTLSKADYEKHKVYACEVTHQGLSSPVTKSFNRGEC	0.62	98.3 % of HeCon Ab (=100)	159 % of HeCon Ab (=100)
GpH7-A5/GpH7-B3 variant K326_06M/GpL16-k0 (antibody, human IgG1, kappa, Heterodimerized anti-glypican-3 IgG1; mutation in one H chain only; also called He Ab) heavy 1: not shown heavy 2: not shown light: DIVMTQSPLSLPVTPGEPASISCQASESLVHSNRNTYLHWYLQKPGQSPQLLIYKVSNRFSGVPDRFSGSGSGTDFTLKISRVEAEDVGVYYCSQNTHVPPTFGQGTKVEIERTVAAPSVFIFPPSDEQLKSGTASVVCLLNNFYPREAKVQWKVDNALQSGNSQESVTEQDSKDSTYSLSSTLTLSKADYEKHKVYACEVTHQGLSSPVTKSFNRGEC	0.63	103 % of HeCon Ab (=100)	165 % of HeCon Ab (=100)
GpH7-A5/GpH7-B3 variant N325_03V/GpL16-k0 (antibody, human IgG1, kappa, Heterodimerized anti-glypican-3 IgG1; mutation in one H chain only; also called He Ab) heavy 1: not shown heavy 2: not shown light: DIVMTQSPLSLPVTPGEPASISCQASESLVHSNRNTYLHWYLQKPGQSPQLLIYKVSNRFSGVPDRFSGSGSGTDFTLKISRVEAEDVGVYYCSQNTHVPPTFGQGTKVEIERTVAAPSVFIFPPSDEQLKSGTASVVCLLNNFYPREAKVQWKVDNALQSGNSQESVTEQDSKDSTYSLSSTLTLSKADYEKHKVYACEVTHQGLSSPVTKSFNRGEC	0.41	45.2 % of HeCon Ab (=100)	111 % of HeCon Ab (=100)
GpH7-A5/GpH7-B3 variant K326_07I/GpL16-k0 (antibody, human IgG1, kappa, Heterodimerized anti-glypican-3 IgG1; mutation in one H chain only; also called He Ab) heavy 1: not shown heavy 2: not shown light: DIVMTQSPLSLPVTPGEPASISCQASESLVHSNRNTYLHWYLQKPGQSPQLLIYKVSNRFSGVPDRFSGSGSGTDFTLKISRVEAEDVGVYYCSQNTHVPPTFGQGTKVEIERTVAAPSVFIFPPSDEQLKSGTASVVCLLNNFYPREAKVQWKVDNALQSGNSQESVTEQDSKDSTYSLSSTLTLSKADYEKHKVYACEVTHQGLSSPVTKSFNRGEC	0.5	100 % of HeCon Ab (=100)	199 % of HeCon Ab (=100)
GpH7-A5/GpH7-B3 variant N325_05P/GpL16-k0 (antibody, human IgG1, kappa, Heterodimerized anti-glypican-3 IgG1; mutation in one H chain only; also called He Ab) heavy 1: not shown heavy 2: not shown light: DIVMTQSPLSLPVTPGEPASISCQASESLVHSNRNTYLHWYLQKPGQSPQLLIYKVSNRFSGVPDRFSGSGSGTDFTLKISRVEAEDVGVYYCSQNTHVPPTFGQGTKVEIERTVAAPSVFIFPPSDEQLKSGTASVVCLLNNFYPREAKVQWKVDNALQSGNSQESVTEQDSKDSTYSLSSTLTLSKADYEKHKVYACEVTHQGLSSPVTKSFNRGEC	0.8	20.7 % of HeCon Ab (=100)	26 % of HeCon Ab (=100)
GpH7-A5/GpH7-B3 variant K326_20W/GpL16-k0 (antibody, human IgG1, kappa, Heterodimerized anti-glypican-3 IgG1; mutation in one H chain only; also called He Ab) heavy 1: not shown heavy 2: not shown light: DIVMTQSPLSLPVTPGEPASISCQASESLVHSNRNTYLHWYLQKPGQSPQLLIYKVSNRFSGVPDRFSGSGSGTDFTLKISRVEAEDVGVYYCSQNTHVPPTFGQGTKVEIERTVAAPSVFIFPPSDEQLKSGTASVVCLLNNFYPREAKVQWKVDNALQSGNSQESVTEQDSKDSTYSLSSTLTLSKADYEKHKVYACEVTHQGLSSPVTKSFNRGEC	0.56	83.3 % of HeCon Ab (=100)	148 % of HeCon Ab (=100)
GpH7-A5/GpH7-B3 variant N325_02A/GpL16-k0 (antibody, human IgG1, kappa, Heterodimerized anti-glypican-3 IgG1; mutation in one H chain only; also called He Ab) heavy 1: not shown heavy 2: not shown light: DIVMTQSPLSLPVTPGEPASISCQASESLVHSNRNTYLHWYLQKPGQSPQLLIYKVSNRFSGVPDRFSGSGSGTDFTLKISRVEAEDVGVYYCSQNTHVPPTFGQGTKVEIERTVAAPSVFIFPPSDEQLKSGTASVVCLLNNFYPREAKVQWKVDNALQSGNSQESVTEQDSKDSTYSLSSTLTLSKADYEKHKVYACEVTHQGLSSPVTKSFNRGEC	0.74	47.6 % of HeCon Ab (=100)	64.4 % of HeCon Ab (=100)
GpH7-A5/GpH7-B3 variant K326_14T/GpL16-k0 (antibody, human IgG1, kappa, Heterodimerized anti-glypican-3 IgG1; mutation in one H chain only; also called He Ab) heavy 1: not shown heavy 2: not shown light: DIVMTQSPLSLPVTPGEPASISCQASESLVHSNRNTYLHWYLQKPGQSPQLLIYKVSNRFSGVPDRFSGSGSGTDFTLKISRVEAEDVGVYYCSQNTHVPPTFGQGTKVEIERTVAAPSVFIFPPSDEQLKSGTASVVCLLNNFYPREAKVQWKVDNALQSGNSQESVTEQDSKDSTYSLSSTLTLSKADYEKHKVYACEVTHQGLSSPVTKSFNRGEC	0.77	114 % of HeCon Ab (=100)	150 % of HeCon Ab (=100)
GpH7-A5/GpH7-B3 variant K326_04F/GpL16-k0 (antibody, human IgG1, kappa, Heterodimerized anti-glypican-3 IgG1; mutation in one H chain only; also called He Ab) heavy 1: not shown heavy 2: not shown light: DIVMTQSPLSLPVTPGEPASISCQASESLVHSNRNTYLHWYLQKPGQSPQLLIYKVSNRFSGVPDRFSGSGSGTDFTLKISRVEAEDVGVYYCSQNTHVPPTFGQGTKVEIERTVAAPSVFIFPPSDEQLKSGTASVVCLLNNFYPREAKVQWKVDNALQSGNSQESVTEQDSKDSTYSLSSTLTLSKADYEKHKVYACEVTHQGLSSPVTKSFNRGEC	0.63	97 % of HeCon Ab (=100)	155 % of HeCon Ab (=100)
GpH7-A5/GpH7-B3 variant K326_05P/GpL16-k0 (antibody, human IgG1, kappa, Heterodimerized anti-glypican-3 IgG1; mutation in one H chain only; also called He Ab) heavy 1: not shown heavy 2: not shown light: DIVMTQSPLSLPVTPGEPASISCQASESLVHSNRNTYLHWYLQKPGQSPQLLIYKVSNRFSGVPDRFSGSGSGTDFTLKISRVEAEDVGVYYCSQNTHVPPTFGQGTKVEIERTVAAPSVFIFPPSDEQLKSGTASVVCLLNNFYPREAKVQWKVDNALQSGNSQESVTEQDSKDSTYSLSSTLTLSKADYEKHKVYACEVTHQGLSSPVTKSFNRGEC	0.79	98.8 % of HeCon Ab (=100)	126 % of HeCon Ab (=100)
